The record followed here is US20230348612A1 (BEIJING MABWORKS BIOTECH, published 2023).

In this assay the target is T1, CD20 on Raji cells (CD20+ tumor cells) (UniProt P11836 1-297, limits assumed).
T1 construct: whole, on cells; also called CD20^+ Raji cells
T1 sequence (looked up): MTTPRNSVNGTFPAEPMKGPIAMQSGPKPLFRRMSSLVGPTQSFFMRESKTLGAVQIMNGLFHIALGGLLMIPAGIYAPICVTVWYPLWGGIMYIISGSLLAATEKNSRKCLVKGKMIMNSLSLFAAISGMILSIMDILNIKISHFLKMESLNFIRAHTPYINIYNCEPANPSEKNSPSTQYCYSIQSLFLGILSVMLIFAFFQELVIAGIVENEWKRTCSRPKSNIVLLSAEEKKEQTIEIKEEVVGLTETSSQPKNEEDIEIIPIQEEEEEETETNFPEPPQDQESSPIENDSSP
Put plainly: FACS on Raji cells.

Description: For the assay to test the MBS303 and MBS303m′ binding activity to Raji and Jurkat cells, 10⁵ Raji or Jurkat cells were plated on 96-well ELISA plates in 100 μ1 cell culture medium, and the ELISA plates were added with 50 μl serially diluted MBS303 and MBS303m, respectively. […] The ELISA plates were incubated 4° C. for 1 h, washed with PBS for three times, and subject to the BD flow cytometry system for FACS.

B1: MBS303 (anti-CD3/CD20 bispecific antibody, anti-CD20 scFv with wildtype light chain framework regions) (bispecific antibody, human IgG1, kappa, lambda, L234A L235A, N297A)
heavy 1: QVQLVQSGAEVKKPGSSVKVSCKASGYAFSYSWINWVRQAPGQGLEWMGRIFPGDGDTDYNGKFKGRVTITADKSTSTAYMELSSLRSEDTAVYYCARNVFDGYWLVYWGQGTLVTVSSASTKGPSVFPLAPSSKSTSGGTAALGCLVKDYFPEPVTVSWNSGALTSGVHTFPAVLQSSGLYSLSSVVTVPSSSLGTQTYICNVNHKPSNTKVDKKVEPKSCDKTHTCPPCPAPEAAGGPSVFLFPPKPKDTLMISRTPEVTCVVVDVSHEDPEVKFNWYVDGVEVHNAKTKPREEQYASTYRVVSVLTVLHQDWLNGKEYKCKVSNKALPAPIEKTISKAKGQPREPQVYTLPPSREEMTKNQVSLSCAVKGFYPSDIAVEWESNGQPENNYKTTPPVLDSDGSFFLVSKLTVDKSRWQQGNVFSCSVMHEALHNHYTQKSLSLSPGK
light 1: DIVMTQTPLSLPVTPGEPASISCRSSKSLLHSNGITYLYWYLQKPGQSPQLLIYQMSNLVSGVPDRFSGSGSGTDFTLKISRVEAEDVGVYYCAQNLELPYTFGGGTKVEIKRTVAAPSVFIFPPSDEQLKSGTASVVCLLNNFYPREAKVQWKVDNALQSGNSQESVTEQDSKDSTYSLSSTLTLSKADYEKHKVYACEVTHQGLSSPVTKSFNRGEC
heavy 2: QVQLVQSGAEVKKPGSSVKVSCKASGYAFSYSWINWVRQAPGQGLEWMGRIFPGDGDTDYNGKFKGRVTITADKSTSTAYMELSSLRSEDTAVYYCARNVFDGYWLVYWGQGTLVTVSSGGGGSGGGGSGGGGSDIVMTQTPLSLPVTPGEPASISCRSSKSLLHSNGITYLYWYLQKPGQSPQLLIYQMSNLVSGVPDRFSGSGSGTDFTLKISRVEAEDVGVYYCAQNLELPYTFGGGTKVEIKGGGGSGGGGSGGGGSEVQLLESGGGLVQPGGSLRLSCAASGFTFNTYAMNWVRQAPGKGLEWVARIRSKYNNYATYYAISVKDRFTISRDDSKNTLYLQMNSLRAEDTAMYYCVRHGNFGNSYLSYWAYWGQGTLVTVSSASTKGPSVFPLAPSSKSTSGGTAALGCLVKDYFPEPVTVSWNSGALTSGVHTFPAVLQSSGLYSLSSVVTVPSSSLGTQTYICNVNHKPSNTKVDKKVEPKSCDKTHTCPPCPAPEAAGGPSVFLFPPKPKDTLMISRTPEVTCVVVDVSHEDPEVKFNWYVDGVEVHNAKTKPREEQYASTYRVVSVLTVLHQDWLNGKEYKCKVSNKALPAPIEKTISKAKGQPREPQVYTLPPSREEMTKNQVSLWCLVKGFYPSDIAVEWESNGQPENNYKTTPPVLDSDGSFFLYSKLTVDKSRWQQGNVFSCSVMHEALHNHYTQKSLSLSPGK
light 2: QAVVTQEPSLTVSPGGTVTLTCQSSTGAVTTNNYANWVQQKPGHAFRGLIGGTKQRAPGVPARFSGSLLGGKAALTLSGVQPEDEAEYYCVLWYSNLWVFGGGTKLTVLGQPKAAPSVTLFPPSSEELQANKATLVCLISDFYPGAVTVAWKADSSPVKAGVETTTPSKQSNNKYAASSYLSLTPEQWKSHRSYSCQVTHEGSTVEKTVAPTECS
notes: Asymmetric; half antibodies MIL220 and MIL221-2 were expressed separately and assembled in vitro; also called MIL220 + MIL221-2
Take B1: the binding result is “binds”.

B2: MBS303m (with 83E, 100Q and 104-106LTA) (anti-CD3/CD20 bispecific antibody, anti-CD20 scFv with mutated light chain framework regions) (bispecific antibody, human IgG1, kappa, lambda, L234A L235A, N297A)
heavy 1: QVQLVQSGAEVKKPGSSVKVSCKASGYAFSYSWINWVRQAPGQGLEWMGRIFPGDGDTDYNGKFKGRVTITADKSTSTAYMELSSLRSEDTAVYYCARNVFDGYWLVYWGQGTLVTVSSASTKGPSVFPLAPSSKSTSGGTAALGCLVKDYFPEPVTVSWNSGALTSGVHTFPAVLQSSGLYSLSSVVTVPSSSLGTQTYICNVNHKPSNTKVDKKVEPKSCDKTHTCPPCPAPEAAGGPSVFLFPPKPKDTLMISRTPEVTCVVVDVSHEDPEVKFNWYVDGVEVHNAKTKPREEQYASTYRVVSVLTVLHQDWLNGKEYKCKVSNKALPAPIEKTISKAKGQPREPQVYTLPPSREEMTKNQVSLSCAVKGFYPSDIAVEWESNGQPENNYKTTPPVLDSDGSFFLVSKLTVDKSRWQQGNVFSCSVMHEALHNHYTQKSLSLSPGK
light 1: DIVMTQTPLSLPVTPGEPASISCRSSKSLLHSNGITYLYWYLQKPGQSPQLLIYQMSNLVSGVPDRFSGSGSGTDFTLKISRVEAEDVGVYYCAQNLELPYTFGGGTKVEIKRTVAAPSVFIFPPSDEQLKSGTASVVCLLNNFYPREAKVQWKVDNALQSGNSQESVTEQDSKDSTYSLSSTLTLSKADYEKHKVYACEVTHQGLSSPVTKSFNRGEC
heavy 2: QVQLVQSGAEVKKPGSSVKVSCKASGYAFSYSWINWVRQAPGQGLEWMGRIFPGDGDTDYNGKFKGRVTITADKSTSTAYMELSSLRSEDTAVYYCARNVFDGYWLVYWGQGTLVTVSSGGGGSGGGGSGGGGSGGGGSDIVMTQTPLSLPVTPGEPASISCRSSKSLLHSNGITYLYWYLQKPGQSPQLLIYQMSNLVSGVPDRFSGSGSGTDFTLKISRVEAEDEGVYYCAQNLELPYTFGQGTKLTAKGGGGSGGGGSGGGGSEVQLLESGGGLVQPGGSLRLSCAASGFTFNTYAMNWVRQAPGKGLEWVARIRSKYNNYATYYAISVKDRFTISRDDSKNTLYLQMNSLRAEDTAMYYCVRHGNFGNSYLSYWAYWGQGTLVTVSSASTKGPSVFPLAPSSKSTSGGTAALGCLVKDYFPEPVTVSWNSGALTSGVHTFPAVLQSSGLYSLSSVVTVPSSSLGTQTYICNVNHKPSNTKVDKKVEPKSCDKTHTCPPCPAPEAAGGPSVFLFPPKPKDTLMISRTPEVTCVVVDVSHEDPEVKFNWYVDGVEVHNAKTKPREEQYASTYRVVSVLTVLHQDWLNGKEYKCKVSNKALPAPIEKTISKAKGQPREPQVYTLPPSREEMTKNQVSLWCLVKGFYPSDIAVEWESNGQPENNYKTTPPVLDSDGSFFLYSKLTVDKSRWQQGNVFSCSVMHEALHNHYTQKSLSLSPGK
light 2: QAVVTQEPSLTVSPGGTVTLTCQSSTGAVTTNNYANWVQQKPGHAFRGLIGGTKQRAPGVPARFSGSLLGGKAALTLSGVQPEDEAEYYCVLWYSNLWVFGGGTKLTVLGQPKAAPSVTLFPPSSEELQANKATLVCLISDFYPGAVTVAWKADSSPVKAGVETTTPSKQSNNKYAASSYLSLTPEQWKSHRSYSCQVTHEGSTVEKTVAPTECS
notes: also called MIL220 + MIL221-3 (with 83E, 100Q, 104-106LTA)
With B2, the binding result was “binds”.
